Laboratory results published in US20100216187A1 (published 2010).

B1: Nanobody 4A9 (VHH)
VHH: EVQLVESGGGLVQAGGSLRLSCEASGFTLDYSGVGWFRQAPGKERELVSCISRGGDRAGYANSVKGRFTMSRDNAKNILYLQMNSLKPEDTAVYYCAATHSGSGCYDGAIDYWGKGTLVTVSS
B2: Nanobody 4C3 (VHH)
VHH: EVQLVESGGGLVQAGGSLRLSCAASGRTFSSYAMAWFRQAPGEEREFVATISVSGGYTYYADSVKGRFTISRDNAKNTVYLQMNTLKPEDTAVYYCAAGDSSSWLEHMYDYWGQGTQVTVSS
B3: Nanobody 4D4 (VHH)
VHH: EVQLVESGGGLVQAGDSLRLSCAASGRTFSPYVMGWFRRAPGKEREFVGGINWSGSNTWYTDSVKGRFTISRDNVKNMVYLQMNSLKPEDTAVYYCAAGSGVGMYRYERQYDYWGQGTQVTVSS
B4: Nanobody 4C5 (VHH)
VHH: EVQLVESGGGLVQAGDSLRLSCAASGRPFSAYVMGWFRRAPGKEREFVGGINWNSANTWYTDSVLGRFTISKDNAKNTVYLQMNSLKPEDTAVYYCAAAGGVGYYRYERQYDYWGQGTQVTVSS
B5: Nanobody 4C4 (VHH)
VHH: EVQLVESGGGLVQAGDSLRLSCAASGRPFMSYVMGWFRRAPGKEREFVGGINWGSGNTWYTDSVLGRFTISRDNAKNTVYLQMNSLKPEDTAVYYCATAAGVGYYRYERQYDYWGQGTQVTVSS
B6: Nanobody 4D7 (VHH)
VHH: EVQLVESGGGLVQAGDSLRLSCAASGRPFSSYVMGWFRRAPGKEREFVGGINWNSGNTWYSDSVLGRFTISRDNAKNTVDLQMNSLKPEDTAVYYCATASGVGYYRYERQYDYWGQGTQVTVSS
B7: Nanobody 4C9 (VHH)
VHH: EVQLVESGGGLVQAGDSLRLSCTASERPFSTYVMGWFRRAPGKEREFVGGITWSGINAWYTDSVLGRFTISSDNAKNTVYLQMNSLKPEDTAVYYCAAASGVGRYRYELQYDYWGQGTQVTVSS
B8: Nanobody 4B10 (VHH)
VHH: EVQLVESGGGLVQAGDSLRLSCAASGRTFSSYAMGWFRQAPGTERQFVARITGKGDSTDYADSVRGRFTISRDNAKNTVYLQMNSLKPEDTAVYYCAADAFNSLLQAGRAEYWGQGTQVTVSS
B9: Nanobody 4D5 (VHH)
VHH: EVQLVESGGGLVQAGGSLRLSCAASGLSFSKYAMGWFRQAPGKQREYVAVISSSDTTYYTNSAKGRFTISRDNAENTVYLQMNSLKPEDTAVYFCAADSYVTALQTLTQISYWGQGTQVTVSS
B10: Nanobody 4C11 (VHH)
VHH: EVQLVESGGGLVQAGGSLRLSCAASGLSFSRYAMGWFRQAPGKQREYVAVISSSDTTYYTNSAKGRFTISRDNAENTVYLQMNSLKPEDTAVYFCAADSFVTALQTLTQINYWGQGTQVTVSS
B11: Nanobody 4D10 (VHH)
VHH: EVQLVESGGGLVQAGDSLRLSCTASERPFMSYVMGWFRRAPGKDREFVGAITWSGINTWYSDSVLGRFTISRDNAKNTVYLQMNSLKPEDTAVYYCAVADGVGLYRYERQYDYWGQGTQVTVSS
B12: Nanobody 4B1 (VHH)
VHH: EVQLVESGGGLVQPGGSLRLSCVAAGFTLDYYAIGWFRQAPGKEREGVSCITSDGRTYYADSVKGRFTISRDMAKKMVYLQMNSLKPEDTAVYYCAAGACMGGSGYEADFGSWGQGTQVTVSS
B13: Nanobody 4A6 (VHH)
VHH: EVQLVESGGGLVQPGGSLRLSCAASPFTLDYYAIGWFRQAPGKEREGVSCSTSHGKTYHADSVKGRFTISRDNAKNTVYLQMNSLKPEDTAVYYCAAGACMGGSGYEADFGSWGQGTQVTVSS
B14: Nanobody 4B6 (VHH)
VHH: KVQLVESGGGLVQVGGSLRLSCVASGRTYGGNAMAWFRQAPGKEREFVAGIDWSSENTRYTDSVKGRFTISRDNAKNTMYLQMNSLKPEDTAVYYCAAGTSWGALASRLENAYSAWGQGTQVTVSS
B15: Nanobody 4B5 (VHH)
VHH: EVQLVESGGGLVQAGDSLRLSCAASGRTYSRNAMAWFRQAPGKEREFVAGIDWSSENTRYIDSVKGRFTISRDNAKSTMYLQMNSLKPEDTAVYYCAAGTSWGALASRLEAAYSSWGQGTQVTVSS
B16: Nanobody 4B8 (VHH)
VHH: EVQLVESGGGLVQAGGSLRLSCAASGGTYSGNAMAWFRQAPGKEREFVAGIDWSSENTRYIDSVKGRFTISRDNAKNTMYLQMNSLKPEDTAVYYCAAGTSWGALASRLEAAYSSWGQGTQVTVSS
B17: Nanobody 4C8 (VHH)
VHH: EVQLVESGGGLVQAGDSLRLSCAASGRTYTPYVMGWFRRAPGKEREFVGAVSWSGTNTWYTDSVKGRFTISRDNAKNTVYLQMNSLKPEDTAVYYCAAGDGVGIYRYEHQYDYWGQGTQVTVSS

Biological target: T1, human serum albumin (human, UniProt P02768 25-609)
T1 construct: Bought serum albumin; also called HSA; antigen
Assay: SPR (Biacore), ratio of the off rates at the two pH

Binder	Ratio pH 7/pH 5 (of kd)
B1	0.54
B2	3.35
B3	2.76
B4	2.44
B5	2.42
B6	2.42
B7	3.88
B8	0.87
B9	1.29
B10	1.19
B11	6.52
B12	0.88
B13	5.77
B14	3.23
B15	2.32
B16	2.43
B17	3.35
